Data as given in patent US20080299108A1, “Peptides for Diagnostic and Therapeutic Methods for Celiac Sprue” (priority 2005, published 2008).
Entries after “also recorded” stand apart in the source; their conditions may differ. Where no end group is shown, it is not given here.

Tests used:
HLA-DQ2 = biological target: T1, HLA-DQ2 (Homo sapiens, UniProt P01909+P01920, A45G/A70V/D89A/E106A/E77G/E98D/H199R/L107V/N214S/P84L/P87L/T103K/T109R/T172A/T60S/V78E/V99I/Y58L/Y62S/Y69I/Y79F); experiment: Peptide exchange assay (HPSEC, fluorescein-conjugated peptides); assay type: binding; details: for DQ2 binding affinity: pH 5 and pH 7; for maximum occupancy (DQ2 bound peptide): pH 7.3, 45 h; for binding maximum (DQ2 bound peptide as percentage of total peptide): pH 5.5, 37° C., 45 h, 4.7 μM DQ2, 0.18 μM peptide
T1 construct: the soluble extracellular domains of the DQ2 α and β chains were co-expressed; Fos leucine zipper, joined through a factor Xa site (C); gliadin peptide […]; Jun leucine zipper, joined through a factor Xa site (C); made in house; host or cells: High Five insect cells, pAcAB3 baculovirus
Description: FIG. 8. Equilibrium occupancy of individual peptides listed in Table 1 in the DQ2 binding pocket, as measured by peptide exchange assays. Measurements were made at (A) pH 5.5 and (B) pH 7.3. 4.7 μM DQ2 was mixed with 0.18 μM fluorescein-conjugated peptide at 37° C. for 45 h, and the abundance of DQ2 bound peptide was calculated as a percentage of total peptide.
DQ2 expression and purification. Soluble DQ2 molecules were expressed and purified as previously described. Briefly, the soluble extracellular domains of the DQ2 α and β chains were co-expressed in High Five insect cells using a pAcAB3 baculovirus expression system, and were affinity-purified using the anti-DQ2 mAb 2.12.E11. […] A complementary Fos/Jun leucine zipper pair was engineered at the C-terminal ends of α and β chains, respectively, with intervening factor Xa proteolysis sites, to increase the heterodimer stability during protein expression.
The concentration of HLA-DQ2 was determined by UV spectrophotometry at 280 nm using the absorption coefficient factor 75,700 cm^−1M^−1 as calculated from the contents of tyrosine, tryptophan and cystine in the DQ2 sequence (22). Prior to use in binding experiments with exogenous ligands, the DQ2-ligand fusion protein was first treated with ˜2% w/w thrombin in pH 7.3 PBS at 0° C. for 2 h.
Peptide exchange assay. For peptide exchange experiments, the DQ2 heterodimer purified as described above was incubated with fluorescein-conjugated ligands in a 25:1 ratio (i.e. 4.7 μM DQ2 with 0.18 μM fluorescent peptide). Incubations were performed at 37° C. in a 1:1 mixture of PBS buffer (10 mM Pi, 150 mM NaCl, pH 7.3, supplemented with 0.02% NaN3) and McIlvaine's citrate-phosphate buffers (pH 5 or pH 7) such that the final pH was either 5.5 or 7.3, respectively. Peptide binding was measured by high performance size exclusion chromatography (HPSEC) (17). 1 μl of reaction mixture was diluted into 14 μl PBS. 12.5 μl of the diluted material was injected onto a BioSep 3000 size exclusion column (Phenomenex), and eluted with PBS buffer at 1 ml/min. The DQ2-peptide complex eluted at 8.5 min, with free peptides emerging […] later. The fluorescence signal was recorded using an in-line Shimadzu RA35 fluorescent detector with excitation wavelength set at 495 nm and emission detection set at 520 nm. Peak areas corresponding to the DQ2-peptide complex and the free peptide were used to calculate the fractional yield of the DQ2-fluoresceinated peptide complex.

[1] = test system: polyclonal T cell line that recognizes all α epitopes; experiment: T cell proliferation, polyclonal T cell line (FIG. 9A); assay type: cell-based, human; details: paraformaldehyde-fixed DQ2 antigen presenting cells
Description: (§1) FIG. 9A-9B. […] Paraformaldehyde-fixed DQ2 cells were used as antigen presenting cells. (A) Proliferation of a polyclonal T cell line that recognizes all α epitopes. (B) Proliferation of a clonal T cell line that recognizes the αII epitope (peptide 3).
(§2) T cell proliferation assays. The DQ2 homozygous […] cell line (LCL) VAVY cells were irradiated with 12,000 rads of γ-irradiation or fixed with 1% paraformaldehyde for 10 minutes as indicated, and incubated with the appropriate peptides overnight in media containing 10% fetal bovine serum, 2% human serum, penicillin and streptomycin at a cell density of 2×10^6 cells/ml in 96-well plates. The next day, the volume was doubled to yield a cell density of 1×10^6 cells/ml, 50 μl of which was placed into a U-bottom 96-well plate. An equal volume of T-cells (50 μl of 1×10^6 cells/ml) was added to each well, and cells were incubated at 37° C. and 5% CO2 for 48 h, at which point 0.5 μCi/well of [methyl-^3H] thymidine (Amersham, TRK120) was added. […] After thawing, incorporated thymidine was collected on a filter mat (Wallac, 1205-401) using a Tomtec cell harvester, and counted using a Wallac 1205 Betaplate liquid scintillation counter.
(§3) To test this hypothesis, we synthesized the 20-mer peptide 5, and quantitatively compared its ability to bind DQ2 in peptide exchange and dissociation assays. […]

[2] = test system: clonal T cell line that recognizes the αII epitope; experiment: T cell proliferation, clonal T cell line (FIG. 9B); assay type: cell-based, human; details: paraformaldehyde-fixed DQ2 antigen presenting cells
Description: as §1, §2, §3

[3] = test system: rat brush border membrane (BBM) protein; experiment: Rat brush border membrane (BBM) digestion of gliadin peptides, LC-MS; assay type: in vitro ADME; details: for apparent half time of disappearance of the parent peptide (t1/2): 100 μM peptide, 37° C.
Description: To dissect this complex process, liquid chromatography coupled mass spectroscopy analysis (LC-MS-MS) was utilized to investigate the pathways and associated kinetics of hydrolysis of immunodominant gliadin peptides treated with rat BBM preparations. Because the rodent is an excellent small animal model for human intestinal structure and function, rat BBM was chosen as a suitable model system for these studies.
BBM fractions were prepared from rat small intestinal mucosa as described by Ahnen et al. (1982) J. Biol. Chem. 257, 12129-35. […] No proline aminopeptidase (EC 3.4.11.5) or prolyl endopeptidase activity (PEP, EC 3.4.21.26) activity was detectable (<5 μU/μg). Alkaline phosphatase and sucrase were used as control BBM enzymes with activities of 66 μU/μg and 350 μU/μg, respectively.
BBM fractions were partially purified from the small intestinal mucosa of adult female rats maintained on an ad libitum diet of wheat-based standard rodent chow. Total protein content was determined by a modified method of Lowry with BSA as a standard. Alkaline phosphatase activity was determined with nitrophenyl phosphate. Sucrase activity was measured using a coupled glucose assay.
Proteolysis with the BBM preparation was investigated using the peptide (SEQ ID NO:1) (SEQ ID NO:1) […], a product of chymotryptic digestion of α-9 gliadin (Arentz-Hansen et al. (2000) J. Exp. Med. 191, 603-12). […] It was subjected to BBM digestion, followed by LC-MS-MS analysis. A standard 50 μl digestion mixture contained 100 μM of synthetic peptide, 10 μM tryptophan and Cbz-tryptophan as internal standards, and resuspended BBM preparations with a final protein content of 27 ng/μl and exogenous proteins, as indicated, in phosphate buffered saline. After incubation at 37° C. for the indicated time, the enzymes were inactivated by heating to 95° C. for 3 minutes. The reaction mixtures were analyzed by LC-MS (SpectraSystem, ThermoFinnigan) using a C18 reversed phase column (Vydac 218TP5215, 2.1×150 mm) with water:acetonitrile:formic acid (0.1%):trifluoroacetic acid (0.025%) as the mobile phase (flow: 0.2 ml/min) and a gradient of 10% acetonitrile for 3 minutes, 10-20% for 3 minutes, 20-25% for 21 minutes followed by a 95% wash. Peptide fragments in the mass range of m/z=300-2000 were detected by electrospray ionization mass spectroscopy using a LCQ ion trap, and their identities were confirmed by MSMS fragmentation patterns.

rat jejunum = experiment: In vivo intestinal perfusion in intact adult rats; details: 15-20 cm segment of jejunum, residence time 20 min
[4] = test system: rat small intestinal brush-border membrane (BBM) enzymes; experiment: Rat BBM digestion of peptides from α2-gliadin (12 ng/μl BBM protein); assay type: in vitro ADME
Description: BBM fractions were prepared from rat small intestinal mucosa.

[5] = biological target: 33-mer α2-gliadin peptide (non-deamidated), residues 57-89
[6] = biological target: soluble HLA-DQ2 heterodimer (extracellular domains of the DQ2 α and β chains with Fos/Jun leucine zippers), thrombin-treated (human); experiment: peptide exchange kinetics, HPSEC, pH 7.3
[7] = biological target: soluble HLA-DQ2 heterodimer (extracellular domains of the DQ2 α and β chains with Fos/Jun leucine zippers), thrombin-treated (human); experiment: peptide exchange kinetics, HPSEC
[8] = test system: pepsin, trypsin, chymotrypsin, elastase and carboxypeptidase

LQLQPFPQPEKPYPQPELPY [Peptide 17, L11K analogue of 20-mer peptide 5]
DQ2 binding affinity (HLA-DQ2): bound poorly to DQ2

LQLQPFPQPELPYPQPEKPY [Peptide 18, L18K analogue of 20-mer peptide 5]
DQ2 binding affinity (HLA-DQ2): bound poorly to DQ2

LQLQPFPQPELPYPQPELPY [Peptide 5]
DQ2 binding affinity (HLA-DQ2): comparable to the 33-mer peptide 1 in all in vitro assays; also recorded: binds to DQ2 equally well as the 33-mer peptide 1 | T cell stimulatory characteristics [1]: substantially more potent T cell antigens than the minimal αII epitope peptide 3 | T cell stimulatory capacity [2]: comparable T cell stimulatory capacity that exceeds that of peptide 3

LQLQPFPQPELPYPQPELPYPQPELPYPQPQPF [Peptide 1]
time to half maximal DQ2 occupancy (HLA-DQ2; exchange kinetics): ~8 h | maximum occupancy (DQ2 bound peptide) (HLA-DQ2): 28% | T cell stimulatory characteristics [1]: substantially more potent T cell antigens than the minimal αII epitope peptide 3 | T cell stimulatory capacity [2]: comparable T cell stimulatory capacity that exceeds that of peptide 3

LQLQPFPQPELPYPQPELPYPQPQLPYPQPQPF [Peptide 14]
DQ2 binding affinity (HLA-DQ2): significantly enhances affinity relative to Q10E (11)

LQLQPFPQPELPYPQPQLPYPQPELPYPQPQPF [Peptide 15]
DQ2 binding affinity (HLA-DQ2): significantly enhances affinity relative to Q10E (11)

LQLQPFPQPELPYPQPQLPYPQPQLPYPQPQPF [Peptide 11]
DQ2 binding affinity (HLA-DQ2): higher affinity for DQ2 than either Q17E (12) or Q24E (13)

LQLQPFPQPQLPYPQPELPYPQPELPYPQPQPF [Peptide 16]
DQ2 binding affinity (HLA-DQ2): approximates the 33-mer binding characteristics

PFPQPELPY [Peptide 2]
binding maximum (DQ2 bound peptide as percentage of total peptide) (HLA-DQ2): less than 1% | maximum occupancy (DQ2 bound peptide) (HLA-DQ2): undetectable

PQPELPYPQ [Peptide 3]
binding maximum (DQ2 bound peptide as percentage of total peptide) (HLA-DQ2): 7%

PQPELPYPQPELPY [Peptide 6]
DQ2 binding affinity (HLA-DQ2): considerably lower affinity for DQ2 than peptide 5

PQPQLPYPQPQLP
stability toward BBM digestion ([3]; 27 ng/μl rat BBM protein): highly resistant to further digestion

QLQPFPQPQLPY
fraction of peptide proteolyzed in the perfusion experiment (rat jejunum): > 90% | apparent half time of disappearance of the parent peptide (t1/2) ([3]; 27 ng/μl rat BBM protein): 35 min | digestion in the presence of exogenous DPP IV ([3]; BBM plus 6-fold excess activity of exogenous fungal DPP IV): complete digestion was observed within four hours

RRLIEDNEYTARG
clearance of digestive intermediates ([3]; 27 ng/μl rat BBM protein): cleared completely within one hour | apparent half time of disappearance of the parent peptide (t1/2) ([3]; 27 ng/μl rat BBM protein): 10 min

WQIPEQSR
half-life of disappearance [4]: ~60 min

B1: human tissue transglutaminase (tTGase) (protein)
chain: AEELVLERCDLELETNGRDHHTADLCREKLVVRRGQPFWLTLHFEGRNYEASVDSLTFSVVTGPAPSQEAGTKARFPLRDAVEEGDWTATVVDQQDCTLSLQLTTPANAPIGLYRLSLEASTGYQGSSFVLGHFILLFNAWCPADAVYLDSEEERQEYVLTQQGFIYQGSAKFIKNIPWNFGQFEDGILDICLILLDVNPKFLKNAGRDCSRRSSPVYVGRVVSGMVNCNDDQGVLLGRWDNNYGDGVSPMSWIGSVDILRRWKNHGCQRVKYGQCWVFAAVACTVLRCLGIPTRVVTNYNSAHDQNSNLLIEYFRNEFGEIQGDKSEMIWNFHCWVESWMTRPDLQPGYEGWQALDPTPQEKSEGTYCCGPVPVRAIKEGDLSTKYDAPFVFAEVNADVVDWIQQDDGSVHKSINRSLIVGLKISTKSVGRDEREDITHTYKYPEGSSEEREAFTRANHLNKLAEKEETGMAMRIRVGQSMNMGSDFDVFAHITNNTAEEYVCRLLLCARTVSYNGILGPECGTKYLLNLNLEPFSEKSVPLCILYEKYRDCLTESNLIKVRALLVEPVINSYLLAERDLYLENPEIKIRILGEPKQKRKLVAEVSLQNPLPVALEGCTFTVEGAGLTEEQKTVEIPDPVEAGEEVKVRMDLLPLHMGLHKLVVNFESDKLKAVKGFRNVIIGPA
kcat/KM (deamidation by tTGase) [5]: kcat/KM=440 min-1 mM-1

{5(6)‑carboxyfluorescein}-LQLQPFPQPELPYPQPELPYPQPELPYPQPQPF [33-mer peptide 1 (deamidated 33-mer from α2-gliadin), fluorescein-conjugated]
maximum occupancy [6]: 28% | time to half maximal DQ2 occupancy [7]: 8 h

B2: myoglobin: another common dietary protein (protein, UniProt P02144 2-154, looked up)
Myoglobin: GLSDGEWQLVLNVWGKVEADIPGHGQEVLIRLFKGHPETLEKFDKFKHLKSEDEMKASEDLKKHGATVLTALGGILKKKGHHEAEIKPLAQSHATKHKIPVKYLEFISECIIQVLQSKHPGDFGADAQGAMNKALELFRKDMASNYKELGFQG
stability toward gastric and pancreatic proteases [8]: rapidly broken down into much smaller products
